This series deals with the molecule itself. As to the kind of experiment: mass photometry.

B1: Bacillus subtilis RecA, wild type, hexa-histidine fusion (natural protein, B. subtilis, UniProt P16971 11-348, looked up)
chain: ALKQIEKQFGKGSIMKLGEKTDTRISTVPSGSLALDTALGIGGYPRGRIIEVYGPESSGKTTVALHAIAEVQQQGGQAAFIDAEHALDPVYAQKLGVNIEELLLSQPDTGEQALEIAEALVRSGAVDIVVVDSVAALVPKAEIEGDMGDSHVGLQARLMSQALRKLSGAINKSKTIAIFINQIREKVGVMFGNPETTPGGRALKFYSSVRLEVRRAEQLKQGNDVMGNKTKIKVVKNKVAPPFRTAEVDIMYGEGISKEGEIIDLGTELDIVQKSGSWYSYEEERLGQGRENAKQFLKENKDIMLMIQEQIREHYGLDNNGVVQQQAEETQEELEFEE
For B1, the “stoichiometry N” value came out at 2.

B2: Bacillus subtilis RecA K70R (Walker A mutant, no ATPase activity), hexa-histidine fusion (natural protein, B. subtilis, UniProt P16971 11-348, looked up)
chain: ALKQIEKQFGKGSIMKLGEKTDTRISTVPSGSLALDTALGIGGYPRGRIIEVYGPESSGRTTVALHAIAEVQQQGGQAAFIDAEHALDPVYAQKLGVNIEELLLSQPDTGEQALEIAEALVRSGAVDIVVVDSVAALVPKAEIEGDMGDSHVGLQARLMSQALRKLSGAINKSKTIAIFINQIREKVGVMFGNPETTPGGRALKFYSSVRLEVRRAEQLKQGNDVMGNKTKIKVVKNKVAPPFRTAEVDIMYGEGISKEGEIIDLGTELDIVQKSGSWYSYEEERLGQGRENAKQFLKENKDIMLMIQEQIREHYGLDNNGVVQQQAEETQEELEFEE
Regarding B2, the “stoichiometry N” value was 2.

B3: Bacillus subtilis RecA K70A (Walker A mutant, lowered ATP binding), hexa-histidine fusion (natural protein, B. subtilis, UniProt P16971 11-348, looked up)
chain: ALKQIEKQFGKGSIMKLGEKTDTRISTVPSGSLALDTALGIGGYPRGRIIEVYGPESSGATTVALHAIAEVQQQGGQAAFIDAEHALDPVYAQKLGVNIEELLLSQPDTGEQALEIAEALVRSGAVDIVVVDSVAALVPKAEIEGDMGDSHVGLQARLMSQALRKLSGAINKSKTIAIFINQIREKVGVMFGNPETTPGGRALKFYSSVRLEVRRAEQLKQGNDVMGNKTKIKVVKNKVAPPFRTAEVDIMYGEGISKEGEIIDLGTELDIVQKSGSWYSYEEERLGQGRENAKQFLKENKDIMLMIQEQIREHYGLDNNGVVQQQAEETQEELEFEE
Take B3: the “stoichiometry N” value amounted to 2.

A word on the stoichiometry N: it is a count of units in the complex or per binding partner.

(Values after doi:10.1101/2022.02.15.480544 (bioRxiv, 2022).)
